This note sets out measurements from patent publication US6825035, “Compositions and methods for modulating expression within smooth muscle cells” (Setagon, Inc.).

This data set deals with T1, Serum response factor (SRF) (UniProt D3ZHH8 D3ZHH8:1-504).
T1 sequence: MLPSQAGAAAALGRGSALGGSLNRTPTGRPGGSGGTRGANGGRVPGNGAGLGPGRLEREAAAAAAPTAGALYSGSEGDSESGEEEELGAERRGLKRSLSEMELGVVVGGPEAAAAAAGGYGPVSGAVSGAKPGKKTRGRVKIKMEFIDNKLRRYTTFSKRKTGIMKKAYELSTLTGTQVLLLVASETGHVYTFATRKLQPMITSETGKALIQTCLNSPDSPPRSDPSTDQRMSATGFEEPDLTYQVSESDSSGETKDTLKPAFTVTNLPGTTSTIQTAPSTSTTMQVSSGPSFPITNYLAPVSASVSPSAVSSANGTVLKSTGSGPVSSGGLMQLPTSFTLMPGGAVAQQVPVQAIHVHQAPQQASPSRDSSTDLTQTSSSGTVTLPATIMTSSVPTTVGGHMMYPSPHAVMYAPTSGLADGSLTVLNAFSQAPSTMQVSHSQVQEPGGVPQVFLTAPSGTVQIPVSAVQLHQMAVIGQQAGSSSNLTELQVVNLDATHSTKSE
In words: EMSA; supershift with SRF antibody; binds more avidly than CArG A and B; 10 mM Tris pH 7.5, 100 mM KCl, 50 mM NaCl, 1 mM EDTA, poly(dI-dC), room temp. The following applies: protein: synthetic; tags: endogenous SRF in rat aortic SMC nuclear extract, identified by SRF antibody supershift; chain copies: 2; label: 32P end label. Here is the method:
6.1.4 Preparation of Nuclear Extracts, In Vitro Synthesis of SRF, and Electromobility Shift Assays Nuclear extracts were prepared from confluent rat aortic SMCs using the methods of Dignam (Dignam J D, et al., *Nucleic Acids Res.* 1983;11:1475–1489). Culture conditions matched those used for transient transfection assays. Oligonucleotides used in EMSAs were purchased commercially (Operon Technologies) and include the following: CArG A, 5'-[…]-3' (SEQ ID NO:14); CArG B, 5'-[…]-3' (SEQ ID NO:15); Intronic CArG, 5'-[…]-3' (SEQ ID NO:16). Probes were ^32P end labeled and annealed. All probes were purified on a 6% acrylamide gel, eluted in TE, and precipitated twice in ethanol.
EMSAs were performed with 20 µl of binding reaction that included=30 pg of labeled probe, 5 µg of SMC nuclear extract 0.2 to 0.6 µg of poly (dI-dC) in 1×binding buffer (10 mM TrisHCl (pH 7.5), 100 mM KCI, 50 mM NaCl, 1 mM dithiothreitol, 1 mM EDTA, and 5% glycerol). Following a 30 min incubation at room temperature, the samples were subjected to electrophoresis on a 5% polyacrylamide gel, which had been pre-run at 170V for 1 hr. Electrophoresis was performed at 170V in 0.5×TBE (45 mM Tris Borate, 1 mM EDTA). Gels were dried and exposed to film for 24–72 h at −70 ° C. […]
In general terms: In EMSA bound probe runs differently from free probe, usually more slowly.

B1: Intronic CArG (SM alpha-actin first intron) (dsDNA)
DNA 1: TTTTACCTAATTAGGAAATG
DNA 2: CATTTCCTAATTAGGTAAAA
For B1, the binding result is on record as “binds”.
